Residue numbers refer to the chain shown, from its start. Names may count otherwise.
T1: human beta-Klotho (KLB) (human, UniProt Q86Z14 53-997)
T1 construct: bought protein, used as analyte in the off-rate screening; also called human KLB; β-Klotho
T1 sequence (looked up): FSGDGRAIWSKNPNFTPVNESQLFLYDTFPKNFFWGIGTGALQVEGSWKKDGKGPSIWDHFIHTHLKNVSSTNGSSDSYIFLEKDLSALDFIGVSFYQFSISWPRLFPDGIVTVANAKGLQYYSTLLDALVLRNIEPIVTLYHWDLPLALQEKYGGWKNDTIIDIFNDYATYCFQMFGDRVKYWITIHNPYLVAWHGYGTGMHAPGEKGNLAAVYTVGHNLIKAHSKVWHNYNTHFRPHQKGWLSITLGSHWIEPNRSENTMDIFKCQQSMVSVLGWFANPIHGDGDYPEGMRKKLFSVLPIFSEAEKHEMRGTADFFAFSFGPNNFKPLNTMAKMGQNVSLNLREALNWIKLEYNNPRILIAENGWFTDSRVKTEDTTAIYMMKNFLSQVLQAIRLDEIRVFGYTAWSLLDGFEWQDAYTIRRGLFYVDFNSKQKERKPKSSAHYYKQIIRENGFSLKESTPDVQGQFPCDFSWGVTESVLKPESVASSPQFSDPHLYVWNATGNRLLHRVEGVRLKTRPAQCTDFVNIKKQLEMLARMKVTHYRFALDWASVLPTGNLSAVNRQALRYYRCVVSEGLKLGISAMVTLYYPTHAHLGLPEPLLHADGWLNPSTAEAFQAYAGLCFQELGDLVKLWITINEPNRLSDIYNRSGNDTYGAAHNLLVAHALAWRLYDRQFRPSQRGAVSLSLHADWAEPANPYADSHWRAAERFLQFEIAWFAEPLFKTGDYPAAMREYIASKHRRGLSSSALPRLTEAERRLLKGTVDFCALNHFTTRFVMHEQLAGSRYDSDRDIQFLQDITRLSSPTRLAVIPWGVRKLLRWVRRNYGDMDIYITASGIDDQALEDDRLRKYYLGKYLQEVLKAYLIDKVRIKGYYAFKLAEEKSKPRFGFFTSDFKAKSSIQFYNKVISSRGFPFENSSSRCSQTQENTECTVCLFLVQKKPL

T2: human beta-Klotho (KLB) (human, UniProt Q86Z14 53-997)
T2 construct: bought protein; also called human KLB
T2 sequence (looked up): T1 sequence (looked up)

B1: 16H7 variant with light chain substitution V98W (antibody, V domains shown)
VH: not shown
VL: SYVLTQPPSVSVAPGQTARITCGGNNIGSESVHWYQQKPGQAPVLVVYDDSDRPSGIPERFSGSNSGNTATLTISRVEAGDEADYYCQVWDGNSDHVWFGGGTKLTVLG
B2: Ab0221 (antibody, IgG4, V domains shown)
VH: not shown
VL: B1 VL with N25A, W98V
notes: IgG4 PE
B3: Ab0195 (antibody, IgG4, V domains shown)
VH: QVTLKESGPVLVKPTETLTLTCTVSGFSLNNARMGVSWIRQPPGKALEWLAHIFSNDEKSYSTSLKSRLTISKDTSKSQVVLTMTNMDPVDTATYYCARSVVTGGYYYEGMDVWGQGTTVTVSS
VL: B1 VL with D49Y, W98V
notes: IgG4 PE
B4: Ab0182 (antibody, IgG4, V domains shown)
VH: not shown
VL: B1 VL with D50E, W98V
notes: IgG4 PE
B5: Ab0204 (antibody, IgG4, V domains shown)
VH: QVTLKESGPVLVKPTETLTLTCTVSGFSLNNARVGVSWIRQPPGKALEWLAHIFSNDEKSYSTSLKSRLTISKDTSKSQVVLTMTNMDPVDTATYYCARSVVTGGYYYEGMDVWGQGTTVTVSS
VL: B1 VL with D91T, W98V
notes: IgG4 PE
B6: Ab0196 (antibody, IgG4, V domains shown)
VH: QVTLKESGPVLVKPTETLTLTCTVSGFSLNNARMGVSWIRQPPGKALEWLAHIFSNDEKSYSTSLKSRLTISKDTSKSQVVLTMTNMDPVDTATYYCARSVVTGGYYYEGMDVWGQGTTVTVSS
VL: B1 VL with D50E, W98V
notes: IgG4 PE
B7: Ab0223 (antibody, IgG4, V domains shown)
VH: not shown
VL: B1 VL with D49S, W98V
notes: IgG4 PE
B8: Ab0197 (antibody, IgG4, V domains shown)
VH: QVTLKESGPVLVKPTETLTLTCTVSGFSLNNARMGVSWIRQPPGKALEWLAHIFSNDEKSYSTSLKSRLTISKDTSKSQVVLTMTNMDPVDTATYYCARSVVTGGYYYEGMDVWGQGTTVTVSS
VL: B1 VL with D91T, W98V
notes: IgG4 PE
B9: Ab0191 (antibody, IgG4, V domains shown)
VH: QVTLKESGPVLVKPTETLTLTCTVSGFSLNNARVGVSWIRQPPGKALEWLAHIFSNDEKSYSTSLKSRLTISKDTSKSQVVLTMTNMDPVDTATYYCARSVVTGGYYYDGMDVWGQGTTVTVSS
VL: B1 VL with N93E, W98V
notes: IgG4 PE
B10: Ab0230 (antibody, IgG4, V domains shown)
VH: not shown
VL: B1 VL with D50S, W98V
notes: IgG4 PE
B11: Ab0228 (antibody, IgG4, V domains shown)
VH: not shown
VL: B1 VL with D50A, W98V
notes: IgG4 PE
B12: Ab0215 (antibody, IgG4, V domains shown)
VH: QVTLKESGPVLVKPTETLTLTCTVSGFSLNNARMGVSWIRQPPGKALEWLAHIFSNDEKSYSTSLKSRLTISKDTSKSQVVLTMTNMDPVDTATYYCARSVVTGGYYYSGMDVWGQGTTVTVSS
VL: B1 VL with N25S, W98V
notes: IgG4 PE
B13: Ab0190 (antibody, IgG4, V domains shown)
VH: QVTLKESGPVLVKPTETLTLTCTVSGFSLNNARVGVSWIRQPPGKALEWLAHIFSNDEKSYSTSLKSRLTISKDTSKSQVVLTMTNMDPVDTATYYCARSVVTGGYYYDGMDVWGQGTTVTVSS
VL: B1 VL with D91T, W98V
notes: IgG4 PE
B14: Ab0203 (antibody, IgG4, V domains shown)
VH: B5 VH
VL: B1 VL with D50E, W98V
notes: IgG4 PE
B15: Ab0187 (antibody, IgG4, V domains shown)
VH: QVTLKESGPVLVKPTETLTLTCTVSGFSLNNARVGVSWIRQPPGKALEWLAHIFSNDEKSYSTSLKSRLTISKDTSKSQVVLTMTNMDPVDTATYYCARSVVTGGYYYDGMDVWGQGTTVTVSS
VL: B1 VL with N25S, W98V
notes: IgG4 PE
B16: Ab0222 (antibody, IgG4, V domains shown)
VH: not shown
VL: B1 VL with N25T, W98V
notes: IgG4 PE
B17: Ab0189 (antibody, IgG4, V domains shown)
VH: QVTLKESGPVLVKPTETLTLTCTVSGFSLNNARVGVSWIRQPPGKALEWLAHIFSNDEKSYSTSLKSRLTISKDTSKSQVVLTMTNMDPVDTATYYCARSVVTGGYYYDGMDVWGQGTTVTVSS
VL: B1 VL with D50E, W98V
notes: IgG4 PE
B18: Ab0194 (antibody, IgG4, V domains shown)
VH: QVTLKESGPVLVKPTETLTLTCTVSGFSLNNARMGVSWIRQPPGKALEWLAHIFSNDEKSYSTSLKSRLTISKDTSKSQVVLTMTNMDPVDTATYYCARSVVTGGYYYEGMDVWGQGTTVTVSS
VL: B1 VL with N25S, W98V
notes: IgG4 PE
B19: Ab0219 (antibody, IgG4, V domains shown)
VH: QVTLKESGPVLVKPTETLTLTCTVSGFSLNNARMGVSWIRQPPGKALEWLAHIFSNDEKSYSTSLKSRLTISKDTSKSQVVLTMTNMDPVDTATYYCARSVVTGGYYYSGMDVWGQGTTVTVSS
VL: B1 VL with N93E, W98V
notes: IgG4 PE
B20: Ab0216 (antibody, IgG4, V domains shown)
VH: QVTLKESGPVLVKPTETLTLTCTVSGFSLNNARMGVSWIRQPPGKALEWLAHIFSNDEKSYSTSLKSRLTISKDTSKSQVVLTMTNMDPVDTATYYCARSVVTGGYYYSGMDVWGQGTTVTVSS
VL: B1 VL with D49Y, W98V
notes: IgG4 PE
B21: 16H7 variant with light chain substitution V98Y (antibody, V domains shown)
VH: not shown
VL: B1 VL with W98Y
B22: Ab0201 (antibody, IgG4, V domains shown)
VH: B5 VH
VL: B1 VL with N25S, W98V
notes: IgG4 PE
B23: Ab0225 (antibody, IgG4, V domains shown)
VH: not shown
VL: B1 VL with D49E, W98V
notes: IgG4 PE
B24: Ab0212 (antibody, IgG4, V domains shown)
VH: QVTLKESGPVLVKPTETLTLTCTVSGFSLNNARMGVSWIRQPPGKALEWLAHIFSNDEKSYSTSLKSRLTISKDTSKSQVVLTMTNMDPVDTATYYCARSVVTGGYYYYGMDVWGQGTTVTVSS
VL: B1 VL with N93E, W98V
notes: IgG4 PE
B25: Ab0217 (antibody, IgG4, V domains shown)
VH: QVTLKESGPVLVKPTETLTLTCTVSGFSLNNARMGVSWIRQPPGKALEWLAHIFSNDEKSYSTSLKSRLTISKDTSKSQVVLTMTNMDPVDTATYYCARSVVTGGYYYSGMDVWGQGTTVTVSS
VL: B1 VL with D50E, W98V
notes: IgG4 PE
B26: Ab0229 (antibody, IgG4, V domains shown)
VH: not shown
VL: B1 VL with D50H, W98V
notes: IgG4 PE
B27: Ab0235 (antibody, IgG4, V domains shown)
VH: not shown
VL: B1 VL with N93D, W98V
notes: IgG4 PE
B28: Ab0208 (antibody, IgG4, V domains shown)
VH: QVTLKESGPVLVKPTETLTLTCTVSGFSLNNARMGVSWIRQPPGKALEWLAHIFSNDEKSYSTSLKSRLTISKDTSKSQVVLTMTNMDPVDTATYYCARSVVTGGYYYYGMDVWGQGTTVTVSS
VL: B1 VL with N25S, W98V
notes: IgG4 PE
B29: Ab0227 (antibody, IgG4, V domains shown)
VH: not shown
VL: B1 VL with D50Y, W98V
notes: IgG4 PE
B30: Ab0202 (antibody, IgG4, V domains shown)
VH: B5 VH
VL: B1 VL with D49Y, W98V
notes: IgG4 PE
B31: Ab0198 (antibody, IgG4, V domains shown)
VH: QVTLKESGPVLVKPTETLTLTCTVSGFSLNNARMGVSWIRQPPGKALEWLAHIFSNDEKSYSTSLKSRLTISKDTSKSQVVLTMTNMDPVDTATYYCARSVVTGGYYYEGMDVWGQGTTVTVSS
VL: B1 VL with N93E, W98V
notes: IgG4 PE
B32: Ab0188 (antibody, IgG4, V domains shown)
VH: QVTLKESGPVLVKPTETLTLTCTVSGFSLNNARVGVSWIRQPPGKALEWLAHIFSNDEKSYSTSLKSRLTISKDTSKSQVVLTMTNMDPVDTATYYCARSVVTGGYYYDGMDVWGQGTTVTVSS
VL: B1 VL with D49Y, W98V
notes: IgG4 PE
B33: Ab0218 (antibody, IgG4, V domains shown)
VH: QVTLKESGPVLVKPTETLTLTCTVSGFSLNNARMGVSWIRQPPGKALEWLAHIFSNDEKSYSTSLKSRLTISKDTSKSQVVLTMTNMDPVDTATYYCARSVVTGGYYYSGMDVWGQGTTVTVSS
VL: B1 VL with D91T, W98V
notes: IgG4 PE
B34: Ab0226 (antibody, IgG4, V domains shown)
VH: not shown
VL: B1 VL with D49T, W98V
notes: IgG4 PE
B35: Ab0180 (antibody, IgG4, V domains shown)
VH: not shown
VL: B1 VL with N25S, W98V
notes: IgG4 PE
B36: Ab0234 (antibody, IgG4, V domains shown)
VH: not shown
VL: B1 VL with N93S, W98V
notes: IgG4 PE
B37: Ab0205 (antibody, IgG4, V domains shown)
VH: B5 VH
VL: B1 VL with N93E, W98V
notes: IgG4 PE

Experiments:
human beta-Klotho (KLB) [1] = target: T1, human beta-Klotho (KLB); assay: BLI off-rate screening, mAb captured, KLB analyte;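 further: Off-rate taken from the dissociation phase, biosensors held in D-PBS with 0.1% BSA over 1800 s, antibody supernatants diluted to 25 µg/mL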
[2] = target: human FGFR1c/KLB receptor complex on iLite FGF21 Assay Ready Cells (human, UniProt P11362 22-822; Q86Z14 1-1044); assay: cell-based or functional assay; on Mean E max (%): reference of the scale not given here
Chain of human FGFR1c/KLB receptor complex on iLite FGF21 Assay Ready Cells (P11362 22-822, chain 1 of 2): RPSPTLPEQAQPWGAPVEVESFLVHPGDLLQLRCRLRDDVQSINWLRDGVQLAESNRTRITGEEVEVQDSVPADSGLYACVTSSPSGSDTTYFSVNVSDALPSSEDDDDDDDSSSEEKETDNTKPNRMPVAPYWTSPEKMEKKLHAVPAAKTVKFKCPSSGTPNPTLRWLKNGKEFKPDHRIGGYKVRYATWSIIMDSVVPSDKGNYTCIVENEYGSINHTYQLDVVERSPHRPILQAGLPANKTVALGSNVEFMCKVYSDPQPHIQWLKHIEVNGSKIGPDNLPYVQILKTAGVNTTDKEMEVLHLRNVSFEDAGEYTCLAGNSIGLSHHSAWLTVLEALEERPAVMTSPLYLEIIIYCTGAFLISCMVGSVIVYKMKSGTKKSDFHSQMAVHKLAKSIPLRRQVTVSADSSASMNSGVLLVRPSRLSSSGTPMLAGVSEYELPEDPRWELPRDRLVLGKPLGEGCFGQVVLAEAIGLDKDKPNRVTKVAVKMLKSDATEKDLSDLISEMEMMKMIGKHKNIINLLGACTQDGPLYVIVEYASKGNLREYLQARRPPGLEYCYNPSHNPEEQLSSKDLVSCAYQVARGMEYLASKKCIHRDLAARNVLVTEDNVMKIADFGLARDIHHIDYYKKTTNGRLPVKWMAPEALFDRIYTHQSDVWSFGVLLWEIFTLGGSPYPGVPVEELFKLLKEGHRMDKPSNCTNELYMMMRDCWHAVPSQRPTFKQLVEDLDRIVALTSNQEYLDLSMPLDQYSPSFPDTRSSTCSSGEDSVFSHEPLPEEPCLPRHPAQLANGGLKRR
Chain of human FGFR1c/KLB receptor complex on iLite FGF21 Assay Ready Cells (Q86Z14 whole entry, chain 2 of 2): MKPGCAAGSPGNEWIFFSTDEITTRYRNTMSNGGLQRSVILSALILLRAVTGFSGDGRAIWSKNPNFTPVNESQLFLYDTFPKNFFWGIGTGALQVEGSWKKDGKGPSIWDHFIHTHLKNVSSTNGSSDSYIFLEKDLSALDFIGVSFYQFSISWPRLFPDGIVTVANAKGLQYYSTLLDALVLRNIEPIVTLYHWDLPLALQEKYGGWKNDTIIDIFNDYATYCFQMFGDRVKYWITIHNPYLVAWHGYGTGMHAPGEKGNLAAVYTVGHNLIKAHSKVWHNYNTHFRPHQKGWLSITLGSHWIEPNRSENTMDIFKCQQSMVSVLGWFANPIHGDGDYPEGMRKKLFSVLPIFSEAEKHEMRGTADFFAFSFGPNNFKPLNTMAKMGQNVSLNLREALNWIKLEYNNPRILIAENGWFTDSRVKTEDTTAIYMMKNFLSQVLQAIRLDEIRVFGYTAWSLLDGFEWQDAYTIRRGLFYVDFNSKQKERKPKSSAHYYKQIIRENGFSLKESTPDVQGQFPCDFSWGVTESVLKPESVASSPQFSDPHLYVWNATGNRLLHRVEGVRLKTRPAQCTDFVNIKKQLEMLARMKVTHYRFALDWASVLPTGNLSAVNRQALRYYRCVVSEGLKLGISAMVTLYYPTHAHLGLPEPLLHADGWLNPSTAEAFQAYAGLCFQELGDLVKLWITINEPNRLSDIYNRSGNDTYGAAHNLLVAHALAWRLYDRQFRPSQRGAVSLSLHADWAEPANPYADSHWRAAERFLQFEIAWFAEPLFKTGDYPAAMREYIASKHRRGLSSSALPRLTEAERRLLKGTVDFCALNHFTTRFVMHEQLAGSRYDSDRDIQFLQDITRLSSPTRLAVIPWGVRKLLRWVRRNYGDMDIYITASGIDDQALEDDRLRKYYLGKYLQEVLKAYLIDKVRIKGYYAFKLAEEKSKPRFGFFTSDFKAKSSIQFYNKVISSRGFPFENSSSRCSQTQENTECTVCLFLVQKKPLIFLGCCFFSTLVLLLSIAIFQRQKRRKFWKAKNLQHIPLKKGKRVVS

[3] = target: human FGFR1c + KLB receptor complex on HEK293 iLite FGF21 reporter cells (human, UniProt P11362 22-822; Q86Z14 1-1044); assay: cell-based or functional assay
Chain of human FGFR1c + KLB receptor complex on HEK293 iLite FGF21 reporter cells (P11362 22-822, chain 1 of 2): as the sequence (P11362 22-822, chain 1 of 2) above
Chain of human FGFR1c + KLB receptor complex on HEK293 iLite FGF21 reporter cells (Q86Z14 whole entry, chain 2 of 2): as the sequence (Q86Z14 whole entry, chain 2 of 2) above

human beta-Klotho (KLB) [4] = target: T2, human beta-Klotho (KLB); assay: SPR

Row | Binder | koff (human beta-Klotho (KLB) [1]) [s⁻¹] | Mean E max (%) [2] [%] | Mean EC50 [2] [nM] | EC50 [3] [nM] | Emax [3] [%] | koff (human beta-Klotho (KLB) [4]) [s⁻¹]
1 | B1 | 5.6e-05 | 99 | 0.099 | – | – | –
2 | B2 | – | – | – | 0.09 | 2000 | 0.00011
3 | B3 | – | – | – | 0.14 | 2030 | 0.00267
4 | B4 | – | – | – | 0.02 | 2290 | 0.000577
5 | B5 | – | – | – | 0.04 | 1420 | 0.00133
6 | B6 | – | – | – | 0.12 | 2050 | 0.00194
7 | B7 | – | – | – | 0.06 | 2050 | 0.00024
8 | B8 | – | – | – | 0.08 | 2000 | 0.00167
9 | B9 | – | – | – | 0.04 | 2470 | 0.000144
10 | B10 | – | – | – | 0.06 | 1610 | 0.000111
11 | B11 | – | – | – | 0.04 | 1380 | 0.000258
12 | B12 | – | – | – | 0.04 | 2000 | 0.00125
13 | B13 | – | – | – | 0.05 | 2370 | 0.000195
14 | B14 | – | – | – | 0.05 | 1600 | 0.00151
15 | B15 | – | – | – | 0.04 | 2780 | 0.000156
16 | B16 | – | – | – | 0.13 | 2020 | 0.000309
17 | B17 | – | – | – | 0.06 | 2760 | 0.000387
18 | B18 | – | – | – | 0.06 | 2550 | 0.000402
19 | B19 | – | – | – | 0.02 | 2490 | 0.000915

Row | Binder | koff (human beta-Klotho (KLB) [1]) [s⁻¹] | Mean E max (%) [2] [%] | Mean EC50 [2] [nM] | EC50 [3] [nM] | Emax [3] [%] | koff (human beta-Klotho (KLB) [4]) [s⁻¹]
20 | B20 | – | – | – | 0.27 | 1180 | 0.00984
21 | B21 | 5.9e-05 | 100 | 0.109 | – | – | –
22 | B22 | – | – | – | 0.05 | 2490 | 0.000336
23 | B23 | – | – | – | 0.09 | 1790 | 0.00104
24 | B24 | – | – | – | 0.07 | 1640 | 0.00185
25 | B25 | – | – | – | 0.07 | 1970 | 0.002
26 | B26 | – | – | – | 0.04 | 1440 | 0.000394
27 | B27 | – | – | – | 0.06 | 2090 | 0.000153
28 | B28 | – | – | – | 0.27 | 1270 | 0.0021
29 | B29 | – | – | – | 0.06 | 2340 | 0.000214
30 | B30 | – | – | – | 0.07 | 1510 | 0.00161
31 | B31 | – | – | – | 0.05 | 2770 | 0.000346
32 | B32 | – | – | – | 0.06 | 2410 | 0.00084
33 | B33 | – | – | – | 2.13 | 1060 | 0.00668
34 | B34 | – | – | – | 0.11 | 1970 | 0.00101
35 | B35 | – | – | – | 0.05 | 2710 | 0.00024
36 | B36 | – | – | – | 0.04 | 1840 | 0.00011
37 | B37 | – | – | – | 0.02 | 2120 | 0.000334

From patent US20220010021A1 (Sanofi, published 2022)
